The data set is described as follows: label from the status in PepcDB records.

As to “EDVSWIKPGQVSWEWWNGATPYGQDVTFKAGCNLETYKYFIDFASKFGIPYIIMDEGWAKSTRDPYTPNPDVDLHELIRYGKEKNVGIVLWLTWLTVEKNFDLFKTFNEWGIKGVKIDFMDRSDQWMVNYYERVAQEAARHHLFVDFHGSFKPAGLEYKYPNVLSYEGVRGMEQMGGCKPENSIYLPFMRNAVGPMDYTPGAMISMQPNIYRSERPNSASIGTRAYQMALFVIFESGLQMLADNPTLYYRNEDCTRFITQVPVTWDET”, the protein production entry is “failed”.

With “EEHRGEEILAVFDTAFGQLLAADPAAFRVKFRKMAASAFAFYRGTAGLFYRDLTEDPDFGDQHGGAYLDERTSRVWIHGDLHAENFGTYMDSTGRLIFNVNDFDEAYVGPFTWDLKRFAASVALIGYAKAFSDEQITELVRVY”, the protein production result is on record as “failed”.

As for “EELEYKGMNTLQISNVDDLISFYQYADDRIPLISGHRGGRGKGYPENSMETFENTLSYTPATFEIDPRLTKDSVIVLFHDDTLERTSNGTGKVSDYTWEELQNFRLKDPEGNITNYRIPTLEEAIRWARGKTILILDKKDVPMERTAQLITDMQAEPYVMITVHDGASARFFYEKNPNFMFEAFVKTKEAVQDYEDNGIPWSHIMAYVGPKITPEVREVIDMLHERGVMCMISTAPSDDKLSTPESRAEAYRMIIRQGVDIIESDRPIEVAEAISSLIPVSSSKGKFFSTL”, the protein production result is listed as “not failed”.

Turning to “EENPRGRFAITLPHSLESNVVMPAIEQLCIEYPGIEPEIIVSDSSLDLVENNLDVAIHAGDLPDSSYRALPIGTITEIFCATPLYLNKNFTPQKLSDLAQLKWI”, the protein production entry is “failed”.

In the case of “EHFNDMIEKRVKSEIRNQVDLKKPMVRISVAISGGKDSSVTLYLLHKILSKRRNVELTAFTVDEGISGYRPAGLESAIKLTKMLGVDHSIIRFQDSFGMTLDSIVGADASRIPCSYCGPLRRKLINEMAERQNADYVALGLNLDDYSQSILMNVAKGDYDRLLRMSPQKEAKDGLVRRIAPLRSVLEKEVVLYAVINGIPFDSSWC”, the protein production result is listed as “failed”.

In the case of “EHGLLVHKAVDKWTTEEVVLWLEQLGPWASLYRDRFLSERVNGRLLLTLTEEEFSRAPYTIENSSHRRVILTELERVR”, the protein production result is “not failed”.

Consider “EKMTRDEIAYMLTNSEETLDADEIEMLQGVFSLDELMAREVMVPRTDAFMVDIQDDSQAIIQSILKQNYSRIPVYDGDKDNVIGIIHTKSLLKAGFVDGFDNIVWKRILQDPLFVPETIFVDDLLKELRNTQRQMAILLDEYGGMAGLVTLEDLLEEIVGEID”, for which the protein production result is “not failed”.

Regarding “ELPSVEELTIILPEDIELKPLGMVSSIIEQLVIIESMTNLPPVNEETVIFKSDRQAAGKIFEIFGPVAHPFYVLRFNSSDHIESKGIKIKETMYFA”, the protein production entry was “not failed”.

Take “EMRKFLVVLDDSRECLNAMRFAAMRAAHTGGGVAILSIIPPDEFNHWIGVGEVMREEARERIHAHFEVFAKWMRDKQGVEPELVIREGEAVPEIIAHVQEDPEIGVLVLGAGTDKKGPGPLVSQLSRSSGSLPIPITIVPGDLSKE”: the protein production result was “failed”.

With “ENGRYEYIVIGSEAAGVGLVRELTAAGKKVLAVDKSKEKIELLEDEGFDAVIADPTDESFYRSLDLEGVSAVLITGSDDEFNLKILKALRSVSDVYAIVRVSSPKKKEEFEEAGANLVVLVADAVKQAFMDKIKKMETL”, the protein production result is reported as “not failed”.

As for “EPLTIREYRPEDLEALLPLYEQLGYPTRTDELRDRLAGLLSHEDYHLLVAECDGQLVAFIGYARMYFFEHDGSYYRILALAVS”, the protein production result is “failed”.

Take “EPPDGVRIVPVTDRAGVDLVADVHEKAFGTDSTRMRHQLLAQVTDDPDAVVAVVALAGDEPVSAARMELVPGTRFAGLWGGGTVEGERGRGIYRALVAHRAKVAADRGYRYVQVDATSQSRPVLARLGFEPLTTTTPYVS”: the protein production entry was “failed”.

Turning to “EQTTAADLPLTLAIAREVGNLLLTDSLLAETNRHLNQLNALLESMDDGVISWDEQGNLQFINAQAARVLRLDATASQGRAITELLTLPAVLQQAIKLAHPLKHVEATFESQHQFIDAVITLKPIIETQGTSFILLLHP”, the protein production result was “failed”.

Turning to “ERFQFAGSGGHQLAAALDLPDAQPLAYALFAHCFTCSKDNLAARRISAAMAARGIAVLRFDFTGLGASEGEFENATFSSNVADLVLAADHLRATHRAPTLLIGHSLGGAAVLAAAAQIPEAKAIATIAAPSDPSHVTGLFADDIETIRTEGRVNVSLAGRPFTIKREFLDDIAEHNLMAEIGKLHKALLILHAPTDDTVGIDNATKIFLAAKHPKSFVSLDHADHLLSDRRDANYAAGVIAAWAQRYIDAEPPAPTAGAPEVPR”, the protein production result is “failed”.

For “ERRAPRKGNTLYVYGEDMTPTLLRGAFSPFGNIIDLSMDPPRNCAFVTYEKMESADQAVAELNGTQVESVQLKVNIARKQPMLD”, the protein production result is reported as “not failed”.

“ERYMQDFDLIFKELERWGPGSESDTLKALQKVPNKSMTLLEIGCGQGIATELFARHTDAMITAVDNEEFALKHLMEKMQQNGLEDKITTVCADMAKMPFETKSFDLIWSEGSAYIMGVQNALKAWKPLLSEDGVLVVSDLVWSTDKPSEGALSFWKKEYPDMVSVSERIKHAQQAGYEVIEHFSLSDAAWEAYYHPLIERLDTLKDKLIDSPVLIDFENEITAFKQRANEFDYEIFILRSR”: the protein production entry is reported as “failed”.

As for “ESLKAGSSWQCDTCLLQNKVTDNKCIACQAAKLSPRDTAKQTGIETPNKSGKTTLSASGTGFGDKFKPVIGTWDCDTCLVQNKPEAIKCVACETPKPGTCVKRALTLTVV”, the protein production result was “failed”.

Regarding “ESLQQVVMAYFGVQFKSEQKAIALKAMQHIVQSFSLDNGPQNHDITHHTDNQGYENYIVVGYWRDPGAYCRWFRSTEVSHWWDSDERLNDGIGYFREIVIPRADQFETLYAFKEDLPGVGAVMDDISDDIQEHGYWGSARERF”, the protein production entry is given as “not failed”.

On to “ETDKTAISVREIADNTYIVLGTMTLNDFNEYFETDLESDNVDTIAGFYLTGVGTIPSQEEKEHFEVESNGKHLELINDKVKDGRVTKLKILVSE”, for which the protein production entry is listed as “failed”.

“ETLPPRQRQRALALPLRLNPRTVALGAQWRQEAGADDAAIVQRALNWVRTEFTYTLAATKRPGLHTVDEFLFRDKAGFCEQFSSSFVVLMRASGIPARVVTGYVGGIYNNLGHYWVIRRMDAHAWAEVWLPQRGWVRVDPTAAVAPERIRDTLEDRLAQNNNDASIDSHWRLADIGDWLRHSWNNLVLGFDAKRQQQLLHSFGINHLYVSQLMMLFIAFTSVSLGLMAWWLARGERERDALLRAWHRLDRHYARLGLGRTRHEPALVW”: the protein production result is recorded as “failed”.

Turning to “EVVVAVASAPVDVAQVGRRRGRLAVIGLGPGAAELMVPAVKAELAQAEDVLGYETYVRMAGPFRGDQVLHCTDNREEMQRARHAFELAAQGRSVAVVSSGDPGVFAMAAAVLEALHESSDPTWHRVDLQILPGV”, the protein production entry is on record as “failed”.

Turning to “FAMESYFKGDSGEAELLAVAHKVQSDAWALQKAAGIAVIGLDGTLYDQVLDTITWLGAIPPRFKHLSGLQRYYAMARGGAALDMSKFFDTNYHYLVPELGPDVLGPATAAGAPLQPDFSGPLDKLARGQAVVGRERAVPILIGPVTFVSLSRGCELPLDQAVARLLPTYCALLQQLAAAGAPEVQLHEPVLATSEGAGMRAEFETAYAQMAQAAGSVPLHLVTYYDDLGAAYPWAVQLPVAAVTLDFLGPPGAAVPSQTLALLQQHGFPADKRLGAGVVDGRSVWKDDGTAVALLRALLDTGAVSSDRLVVTSSAPLQHLPYDLGLELEAPKTPEAEPHLPPALAARLGFAKQKVEEIVSVARLAASPAAAAAAAGHGAVVQLQRLQQGKGVEDHTAD”, the protein production entry is reported as “failed”.

In the case of “FDKLGNSAAIQEMNREVEAAAKRTSPVFLTGEAGSPFETVARYFHKNGTPWVSPARVEYLIDMPMELLQKAEGGVLYVGDIAQYSRNIQTGITFIIGKAERCRVRVIASCSYAAGSDGISCEEKLAGLFSESVVRIPPLS”, the protein production result is recorded as “not failed”.

Take “FHSYTGELKIGASVASGQQVLRPALGKFMRQYPDLKVQLNLVNRRVDFIEEGFDVVIRIGQLNDSMLIAKKLGAINRKIFASPSYLAKQGNPDKVEQLTEHQLLIMNP”: the protein production entry is listed as “failed”.

Turning to “FKAVFISDTHLGTKDSKASLLLEFIKEIETKELYLVGDIIDGWSLKRKWIWLQPHSDVIQKILKAARKGVRVTYILGNHDEFIRPFLPLALGDHIRVVDEATYKAKNKKRYKIVHGDLYDSITMTKKWLAILGDNGYQFLLRLNDPINTLRQRLGFRRYWSFSQFIKDHVKQAVAYISDFEKILVAHAREEKFDGIICGHIHKAEIRDIEGITYMNCGDWVESCTALVETLEGEFKIIRW”, the protein production entry is “failed”.

Take “FKDLRLVSYTLLFDFIVSRVIDLIGEGGYAGKGFMIITKRPDQLAKAINDDLGRGVTFISGQGYYSKENLKIIYCIVGRNEIVKTKEMIHRIDPQAFITITEAHEILGEGFTFEKE”: the protein production result is given as “failed”.

As for “FKVPPFQDCILSFLGFSDEEKHSMEEMTEMQGGSYLPVGDERCTHLIVEENTVKDLPFEPSKKLFVVKQEWFWGSIQMDARAGETMYLYEKANTPE”, the protein production entry is listed as “not failed”.

As to “FLILLRKTLEQLQEKDTGNIFSEPVPLSEVPDYLDHIKKPMDFFTMKQNLEAYRYLNFDDFEEDFNLIVSNCLKYNAKDTIFYRAAVRLREQGGAVLRQARRQAEKMG”, the protein production entry is “not failed”.

As for “FLVTPEGRRIAYRLTDGEGPAVVFCGGFKSDMEGTKALHLQAWAERTGRAFLRFDYSGHGQSEGAFLDGSIGDWFEDARAVCGLLAGPLLLVGSSMGGWISLLLAREMGARVAGLVGIAAAPDFTEDSMWGGFNAAQREALQRAGQVILPSDYSEEPYIITRRLIEEGRRRLVLRDPLELGFPVRLLQGTADVDVPPSVALRLLDHATGPDIRLTLVKGADHRFSTPECLRMIEQAVEELL”, the protein production result is “failed”.

For the sequence “FQKYQYPIYYGNAIFLADSPKKIDTPLYSPIKIAFEKALKNAKDSVFIASSYFIPGKKMMKIFKNQISKGIELNILTNSLSSTDAIVVYGAWERYRNQLVRMGANVYEIRNDFFNRQIKGRFSTKHSLHGKTIVFDDNLTLLGSFNIDPRSAYINTESAVLFDNPSFAKRVRLSLKDHAQQSWHLVVYRHRVIWEAVEEGILIHEKTSPDTSFFLRLIKEWSKVLPEREL”, the protein production result was “failed”.

On to “FSIGVTGVMSAGKSTMLNAILQREILGTSVIPETANLTILRFDQNERAIVRFWNRHEWEMIAQSAQFDEGIDYFMKESLTVFGTVLHEYITQEGRTYEIPLEELSTYTSAKHPSKLCNLVKSVEIFTPLEFLDDGVEIVDTPGLDDPLTQREEITKEYLARCDVMLHLMNAAQPATQKDVDFIIDALIYQNVSRLLVILTRADSLTPQE”, for which the protein production entry was “failed”.

“FTCPITKEEMKKPVKNKVCGHTYEEDAIVRMIESRQKRKKKAYCPQIGCSHTDIRKSDLIQDEALRRAIENHNKKRHRHSE”: the protein production result is “not failed”.

For the sequence “GDGNITTENIPVSEYDCLELEGGGMVVNYTQSDAPEGLEIKTDRNIFEKYEFNVENHKLKIRPKKEFRKHTNFRPTEFMVTANSRNLKKLAAAGSTHVNINSPLQAEEFEAGLAGSGIIQFHDTASFTNLKIEIAGSGDFVGHKVYCEELNGDMAGSNTIVLGGTVGIAEFSIAGSGTVRAFDCTMDELECKIAGSGDIEAFVVNKIKAEIAGSGSVKYKGDPQDIQKKVMGSGKIEKVE”, the protein production entry is “not failed”.

For “GEVVLKMKVEGMTCHSCTSTIEGKIGKLQGVQRIKVSLDNQEATIVYQPHLISVEEMKKQIEAMGFPAFVKKIEGR”, the protein production result is recorded as “not failed”.

On to “GFVCDDFPKPQITVQPETQSAIKGSDVSFTCSAASSSDSPMTFAWKKDNEALQDAEMENYAHLRAQGGELMEYTTILRLRNVEFTSEGKYQCVISNHFGSSYSVKAKLTIN”, for which the protein production entry is “not failed”.

The values are drawn from a protein production outcome set (Wang et al. 2014).
